Reference: US20200165312A1, “COSMETIC COMPOSITION FOR IMPROVING SKIN CONDITIONS COMPRISING FUSION PROTEIN INCLUDING SKIN PENETRATION ENHANCING PEPTIDE” (LG HOUSEHOLD & HEALTH CARE LTD., priority 2017, published 2020)

How the values were obtained:
[1] = Skin penetrability of growth factor fusion proteins (Franz glass cell, ELISA); format: in vitro ADME, porcine; conditions: for Penetrated amount (%): 2 μg, 16 hours; for skin penetrability compared with the unfused protein: summary of Tables 7, 12, 16, 20, 24
Description: (§1) Specifically, porcine skin (thickness: 0.7 mm, Medikinetics) was placed between upper and lower ends of Franz glass cell (standard diameter: 9 mm, Receiver 5 mL, Permegear), and TBS (50 mM Tris pH 7.5, 150 mM NaCl) including 1% BSA and 0.01% Tween 20 was prepared. Then, 500 μL of the TBS was applied to the upper end of the glass cell (Donor chamber), and 5 mL of the TBS was applied to the lower end of the glass cell, (Receiver chamber). Subsequently, 2 μg of PDGFa or T-PDGFa was applied to the upper end of the glass cell, followed by reaction for 16 hours. Then, a concentration of PDGFa or T-PDGFa was quantitatively analyzed using the ELISA kit (R&D Systems), and a relative amount of T-PDGFa to PDGFa was calculated as a penetrated amount (Table 7).
Specifically, porcine skin (thickness: 0.7 mm, Medikinetics) was placed between upper and lower ends of Franz glass cell (standard diameter: 9 mm, Receiver 5 mL, Permegear), and TBS (50 mM Tris pH 7.5, 150 mM NaCl) including 1% BSA and 0.01% Tween 20 was prepared. Then, 500 μL of the TBS was applied to the upper end of the glass cell (Donor chamber), and 5 mL of the TBS was applied to the lower end of the glass cell, (Receiver chamber).
as §1, with “IGF-1” for “PDGFa”, “T-IGF-1” for “T-PDGFa”, “16).” for “7).”
as §1, with “KGF” for “PDGFa”, “T-KGF” for “T-PDGFa”, “20).” for “7).”
as §1, with “Tβ4” for “PDGFa”, “T-Tβ4” for “T-PDGFa”, “24).” for “7).”

[2] = Skin retentivity of growth factor fusion proteins (porcine skin disrupted, ELISA); format: in vitro ADME; conditions: for Remaining amount (%): skin after 16 hours penetration test; for skin retentivity higher than the unfused protein: summary of Tables 8, 13, 17, 21, 25
Description: Specifically, the porcine skin remained after the experiment of Example 3-2-4 was recovered, frozen in liquid nitrogen, and disrupted. An amount of PDGFa or T-PDGFa contained therein was quantitatively analyzed using the ELISA kit (R&D Systems). In addition, a relative amount of T-PDGFa to PDGFa was calculated as a remaining amount (Table 8).
Specifically, the porcine skin remained after the experiment of Example 3-3-4 was recovered, frozen in liquid nitrogen, and disrupted. An amount of VEGF or T-VEGF contained therein was quantitatively analyzed using the ELISA kit (R&D Systems).
Specifically, the porcine skin remained after the experiment of Example 3-4-4 was recovered, frozen in liquid nitrogen, and disrupted. An amount of IGF-1 or T-IGF-1 contained therein was quantitatively analyzed using the ELISA kit (R&D Systems). In addition, a relative amount of T-IGF-1 to IGF-1 was calculated as a remaining amount (Table 17).
Specifically, the porcine skin remained after the experiment of Example 3-5-3 was recovered, frozen in liquid nitrogen, and disrupted. An amount of KGF or T-KGF contained therein was quantitatively analyzed using the ELISA kit (R&D Systems). In addition, a relative amount of T-KGF to KGF was calculated as a remaining amount (Table 21).
Specifically, the porcine skin remained after the experiment of Example 3-6-3 was recovered, frozen in liquid nitrogen, and disrupted. An amount of Tβ4 or T-Tβ4 contained therein was quantitatively analyzed using the ELISA kit (R&D Systems). In addition, a relative amount of T-Tβ4 to Tβ4 was calculated as a remaining amount (Table 25).

Molecule | Penetrated amount (%) ([1]; relative to KGF) | skin penetrability compared with the unfused protein [1] | Remaining amount (%) ([2]; relative to KGF) | skin retentivity higher than the unfused protein [2] | Penetrated amount (%) ([1]; relative to VEGF) | Remaining amount (%) ([2]; relative to VEGF)
T-KGF: SEQ ID NO: 1 peptide C-terminal linked to N-terminal of KGF via GG linker (protein, Synthetic Fusion protein of T-KGF) NGSLNTHLAPILGGCNDMTPEQMATNVNCSSPERHTRSYDYMEGGDIRVRRLFCRTQWYLRIDKRGKVKGTQEMKNNYNIMEIRTVAVGIVAIKGVESEFYLAMNKEGKLYAKKECNEDCNFKELILENHYNTYASAKWTHNGGEMFVALNQKGIPVRGKKTKKEQKTAHFLPMAIT | 310 ± 12 | about three times higher | 9,700 ± 850% | about 100 times |  | 
KGF: keratinocyte growth factor having an amino acid sequence of SEQ ID NO: 44 (protein, Human KGF) CNDMTPEQMATNVNCSSPERHTRSYDYMEGGDIRVRRLFCRTQWYLRIDKRGKVKGTQEMKNNYNIMEIRTVAVGIVAIKGVESEFYLAMNKEGKLYAKKECNEDCNFKELILENHYNTYASAKWTHNGGEMFVALNQKGIPVRGKKTKKEQKTAHFLPMAIT | 100 ± 18 |  | 100 ± 17% |  |  | 
T-VEGF: SEQ ID NO: 1 peptide C-terminal linked to N-terminal of VEGF via GG linker (protein, Synthetic Fusion protein of T-VEGF) NGSLNTHLAPILGGAPMAEGGGQNHHEVVKFMDVYQRSYCHPIETLVDIFQEYPDEIEYIFKPSCVPLMRCGGCCNDEGLECVPTEESNITMQIMRIKPHQGQHIGEMSFLQHNKCECRPKKDRARQENPCGPCSERRKHLFVQDPQTCKCSCKNTDSRCKARQLELNERTCRCDKPRR |  | about three times higher |  | about 100 times | 295 ± 21 | 9,800 ± 790%
